{"source": "paper PMC3251568", "target": "c-Abl (UniProt P00519)", "test": "anti-c-Abl IP, FLAG-PCNA western", "settings": "reference: wild-type FLAG-PCNA; sites Y211"}
{"substance": "PCNA (proliferating cell nuclear antigen) (from UniProt P12004) Y211F FLAG-PCNA", "values": [{"measurement": "binding against the reference", "value": "weaker"}]}
